The text below walks through data of US20170232076A1 (SHIRE HUMAN GENETIC THERAPIES, published 2017).

By Kd is commonly meant the equilibrium constant for the complex coming apart. Read a low Kd as higher affinity.

Test [1] addresses cation-independent mannose-6-phosphate receptor (CI-M6PR) on cells overexpressing CI-M6PR. As to the kind of experiment: cellular uptake assay on cells overexpressing CI-M6PR, intracellular Naglu activity read-out.
For test [2], the target named is T1, cation-independent mannose-6-phosphate receptor (CI-M6PR), as used in the in vitro receptor binding assay …. The experiment in a line: ELISA, CI-M6PR binding, detection with antibody to human Naglu. (In general: An ELISA detects its analyte on a solid surface through an enzyme-linked reagent.)
Test [3] has as its target T1, cation-independent mannose-6-phosphate …. The experiment in a line: in vitro CI-M6PR binding assay.

B1: Naglu-IGFII fusion protein (produced in HT-1080 cells) (enzyme)
chain: DEAREAAAVRALVARLLGPGPAADFSVSVERALAAKPGLDTYSLGGGGAARVRVRGSTGVAAAAGLHRYLRDFCGCHVAWSGSQLRLPRPLPAVPGELTEATPNRYRYYQNVCTQSYSFVWWDWARWEREIDWMALNGINLALAWSGQEAIWQRVYLALGLTQAEINEFFTGPAFLAWGRMGNLHTWDGPLPPSWHIKQLYLQHRVLDQMRSFGMTPVLPAFAGHVPEAVTRVFPQVNVTKMGSWGHFNCSYSCSFLLAPEDPIFPIIGSLFLRELIKEFGTDHIYGADTFNEMQPPSSEPSYLAAATTAVYEAMTAVDTEAVWLLQGWLFQHQPQFWGPAQIRAVLGAVPRGRLLVLDLFAESQPVYTRTASFQGQPFIWCMLHNFGGNHGLFGALEAVNGGPEAARLFPNSTMVGTGMAPEGISQNEVVYSLMAELGWRKDPVPDLAAWVTSFAARRYGVSHPDAGAAWRLLLRSVYNCSGEACRGHNRSPLVRRPSLQMNTSIWYNRSDVFEAWRLLLTSAPSLATSPAFRYDLLDLTRQAVQELVSLYYEEARSAYLSKELASLLRAGGVLAYELLPALDEVLASDSRFLLGSWLEQARAAAVSEAEADFYEQNSRYQLTLWGPEGNILDYANKQLAGLVANYYTPRWRLFLEALVDSVAQGIPFQQHQFDKNVFQLEQAFVLSKQRYPSQPRGDTVDLAKKIFLKYYPRWVAGSWGAPGGGGGAAAAAGGGGGGAPGGGGGAAAAAGGGGGGAPGGGGGAAAAAGGGGGGAPLCGGELVDTLQFVCGDRGFYFSRPASRVSRRSRGIVEECCFRSCDLALLETYCATPAKSE
notes: Purified from conditioned medium
Take B1: the “fold higher affinity than Naglu-SapDC produced in GNPT overexpressing cells” value in test [1] amounted to 3.6 fold. Further, the equilibrium dissociation constant (Kd) in test [2] is ~0.21 nM; in test [3], 0.24 nM.

B2: Naglu-LIF fusion protein (produced in HT-1080 cells) (enzyme)
chain: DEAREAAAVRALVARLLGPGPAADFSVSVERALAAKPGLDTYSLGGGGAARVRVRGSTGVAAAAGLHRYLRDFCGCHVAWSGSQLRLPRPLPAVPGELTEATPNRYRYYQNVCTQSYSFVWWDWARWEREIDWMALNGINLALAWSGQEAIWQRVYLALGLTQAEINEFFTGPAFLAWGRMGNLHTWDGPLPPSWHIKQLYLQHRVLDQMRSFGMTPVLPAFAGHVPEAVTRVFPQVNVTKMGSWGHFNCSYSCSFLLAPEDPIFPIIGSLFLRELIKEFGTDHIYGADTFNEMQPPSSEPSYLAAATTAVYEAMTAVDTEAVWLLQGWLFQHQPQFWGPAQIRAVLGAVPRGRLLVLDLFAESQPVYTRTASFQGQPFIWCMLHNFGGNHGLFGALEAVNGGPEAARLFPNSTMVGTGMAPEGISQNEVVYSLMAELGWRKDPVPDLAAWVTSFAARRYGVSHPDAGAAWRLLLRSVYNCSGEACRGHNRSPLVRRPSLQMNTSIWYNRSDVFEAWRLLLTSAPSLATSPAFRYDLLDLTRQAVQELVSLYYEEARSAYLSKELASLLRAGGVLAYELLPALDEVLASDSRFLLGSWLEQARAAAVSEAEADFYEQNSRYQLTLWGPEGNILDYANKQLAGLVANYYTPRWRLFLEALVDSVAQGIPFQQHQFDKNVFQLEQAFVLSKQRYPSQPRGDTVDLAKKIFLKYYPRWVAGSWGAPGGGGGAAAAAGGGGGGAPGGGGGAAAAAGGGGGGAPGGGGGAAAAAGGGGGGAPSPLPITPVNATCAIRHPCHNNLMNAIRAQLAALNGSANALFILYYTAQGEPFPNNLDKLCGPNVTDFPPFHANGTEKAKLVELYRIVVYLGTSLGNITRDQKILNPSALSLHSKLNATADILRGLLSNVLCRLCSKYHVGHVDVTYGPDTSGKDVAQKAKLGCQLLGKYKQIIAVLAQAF
modifications: N-linked glycosylation sites in the LIF part marked (N); by anti-M6P Western blot not M6P-phosphorylated in any detectable manner when overexpressed alone
Turning to B2, in test [2], binding was characterised by a dissociation constant (Kd) of 32.4 nM.

B3: recombinant human Naglu (rhNaglu) produced in HT-1080 cells overexpressing GNPT (enzyme)
chain: DEAREAAAVRALVARLLGPGPAADFSVSVERALAAKPGLDTYSLGGGGAARVRVRGSTGVAAAAGLHRYLRDFCGCHVAWSGSQLRLPRPLPAVPGELTEATPNRYRYYQNVCTQSYSFVWWDWARWEREIDWMALNGINLALAWSGQEAIWQRVYLALGLTQAEINEFFTGPAFLAWGRMGNLHTWDGPLPPSWHIKQLYLQHRVLDQMRSFGMTPVLPAFAGHVPEAVTRVFPQVNVTKMGSWGHFNCSYSCSFLLAPEDPIFPIIGSLFLRELIKEFGTDHIYGADTFNEMQPPSSEPSYLAAATTAVYEAMTAVDTEAVWLLQGWLFQHQPQFWGPAQIRAVLGAVPRGRLLVLDLFAESQPVYTRTASFQGQPFIWCMLHNFGGNHGLFGALEAVNGGPEAARLFPNSTMVGTGMAPEGISQNEVVYSLMAELGWRKDPVPDLAAWVTSFAARRYGVSHPDAGAAWRLLLRSVYNCSGEACRGHNRSPLVRRPSLQMNTSIWYNRSDVFEAWRLLLTSAPSLATSPAFRYDLLDLTRQAVQELVSLYYEEARSAYLSKELASLLRAGGVLAYELLPALDEVLASDSRFLLGSWLEQARAAAVSEAEADFYEQNSRYQLTLWGPEGNILDYANKQLAGLVANYYTPRWRLFLEALVDSVAQGIPFQQHQFDKNVFQLEQAFVLSKQRYPSQPRGDTVDLAKKIFLKYYPRWVAGSW
modifications: M6P on N-linked glycans enhanced by co-expression with GNPT
notes: Same polypeptide as rhNaglu; It differs in being co-expressed with GNPT; also called GNPT/rhNaglu; rhNaglu produced using a GNPT overexpressing cell line
On to B3, for which the dissociation constant Kd in test [3] was ~65 nM.
